Measured values: patent publication US10202593B2, “Evolved sortases and uses thereof” (President and Fellows of Harvard College, priority 2013, dated 2019)
Values joined by “and” are separate entries in the source; they are usually repeats but may differ in a detail not shown here. Equal values may be shown once. Read-outs that look alike come from different tables or passages of the source.

B1: eSrtA (protein)
chain: QAKPQIPKDKSKVAGYIEIPDADIKEPVYPGPATREQLNRGVSFAEENESLDDQNISIAGHTFIDRPNYQFTNLKAAKKGSMVYFKVGNETRKYKMTSIRNVKPTAVEVLDEQKGKDKQLTLITCDDYNEETGVWETRKIFVATEVK
B2: eSrtA(4S-9): P94R, N98D, S102C, A104V, A118T, F122A, K134R, F144L, D160N, D165A, I182V, E189F, K190E, K196T (protein)
chain: QAKPQIPKDKSKVAGYIEIPDADIKEPVYPGPATREQLDRGVCFVEENESLDDQNISITGHTAIDRPNYQFTNLRAAKKGSMVYLKVGNETRKYKMTSIRNVKPTAVEVLDEQKGKDKQLTLVTCDDYNFETGVWETRKIFVATEVK
B3: eSrtA(2A-9): P94R, S102C, A104H, E105D, K138P, K152I, N160K, K162H, T164N, D165A, K173E, I182V, K190E, T196S (protein)
chain: QAKPQIPKDKSKVAGYIEIPDADIKEPVYPGPATREQLNRGVCFHDENESLDDQNISIAGHTFIDRPNYQFTNLKAAKPGSMVYFKVGNETRIYKMTSIRKVHPNAVEVLDEQEGKDKQLTLVTCDDYNEETGVWESRKIFVATEVK

What was measured:
Type in all cases: biochemical
[1] = system: LPESG (Abz-LPESGK(Dnp)-CONH2); test: In vitro sortase kinetics HPLC assay, LPESG substrate; settings: for KN: eight GGG concentrations; for Rel. Activity: kcat/Km of the enzyme's preferred substrate relative to kcat/Km on this substrate
Outline: (§1)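 Abz-LXEXGK(Dnp) peptides in 300 mM Tris pH 7.5, 150 mM NaCl, 5 mM CaCl2, 5% DMSO, GGG; 22.5° C., acid-quenched, converted fraction by reverse-phase HPLC peak areas. kcat and Km from eight substrate concentrations fit to Michaelis-Menten; KH at 1 mM substrate over eight GGG levels.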

[2] = system: LAETG (Abz-LAETGK(Dnp)-CONH2); test: In vitro sortase kinetics HPLC assay, LAETG substrate; settings: for KN: eight GGG concentrations; for Rel. Activity: kcat/Km of the enzyme's preferred substrate relative to kcat/Km on this substrate
Method: See below for details on sortase expression and purification, and on the synthesis of Abz-LPETGK(Dnp)-CONH2 (SEQ ID NO: 19). […] Reactions were initiated with the addition of enzyme and incubated at 22.5° C. for 3 to 20 minutes before quenching with 0.5 volumes of 1 M HCl. Five to ten nmol of peptide from the quenched reactions were injected onto an analytical reverse-phase Eclipse XDB-C18 HPLC column (4.6×150 mm, 5 μm, Agilent Technologies) and chromatographed using a gradient of 10 to 65% acetonitrile with 0.1% TFA in 0.1% aqueous TFA over 13 minutes. Retention times under these conditions for the Abz-LPETGK(Dnp)-CONH2 (SEQ ID NO: 19) substrate, the released GKDnp peptide, and the Abz-LPETGGG-COOH (SEQ ID NO: 20) product were 12.8, 10.4, and 9.1 min, respectively. To calculate the percent conversion, the ratio of the integrated areas of the Abz-LPETGGG-COOH (SEQ ID NO: 20) and Abz-LPETGK(Dnp)-CONH2 (SEQ ID NO: 19) peptide Abs220 peaks was compared to a standard curve generated by mixing the product and starting peptide in known ratios. To determine […] and Km, reaction rates were fit to the Michaelis-Menten equation using OriginPro 7.0 software. All kinetics values reported represent the average of at least three measurements. Percent conversion was also calculated by using the ratio of the integrated areas of the GK(Dnp)-CONH2 and Abz-LPETGK(Dnp)-CONH2 peptide Abs355 peaks were compared directly (Example 5). To determine kcat and Km, LPETG, reaction rates were fit to the Michaelis-Menten equation using Microsoft Excel using the Solver add-in. To determine Km,GGG and KH, reaction rates were fit to the modified Michaelis-Menten, for which KH is as defined when KH<<Km,GGG.
Assays to determine eSrtA, eSrtA(2A-9) and eSrtA(4S-9) specificity were performed by preparing 10 μM stocks of Abz-LXEXGK(Dnp) (SEQ ID NO: 75) peptides in 300 mM Tris pH 7.5, 150 mM NaCl, 5 mM CaCl2, 5% v/v DMSO, and 100 mM Gly-Gly-Gly-COOH (GGG). Reactions were performed by adding eSrtA(2A-9) to a final concentration of 450 nM, eSrtA(4S-9) to a final concentration of 115 nM or eSrtA to a final concentration of 47.5 nM and a final volume of 100 μL, then incubating at 22.5° C. for 15 minutes. Reactions were quenched by the addition of 0.2 volumes of 5 M HCl, then were injected onto an analytical reverse-phase Eclipse XDB-C18 HPLC column (4.6×150 mm, 5 μm, Agilent Technologies) and chromatographed using a gradient of 10 to 65% acetonitrile with 0.1% TFA in 0.1% aqueous TFA over 13 minutes. Retention times under these conditions for the Abz-LPETGK(Dnp)-CONH2 (SEQ ID NO: 19) substrate, the released GKDnp peptide, and the Abz-LPETGGG-COOH (SEQ ID NO: 20) product were 12.8, 10.4, and 9.1 min, respectively, while the remaining Abz-LXEXGK(Dnp)-CONH2 (SEQ ID NO: 74) substrates varied in retention time between 9 and 13 minutes. To calculate the percent conversion, the ratio of the integrated areas of the GK(Dnp)-CONH2 and Abz-LPETGK(Dnp)-CONH2 (SEQ ID NO: 19) peptide Abs355 peaks were compared directly. Subsequent determination of kcat/Km and KH were performed as described for in vitro SrtA characterization.
In each case, rate constants were determined by measuring enzyme velocity at eight different substrate concentrations by HPLC assay, then fit using nonlinear regression to the Michaelis-Menten equation, yielding kcat and Km. KH was calculated by measuring enzyme velocity at 1 mM target substrate and eight different GGG concentrations by HPLC assay, then fitting the resulting curves using nonlinear regression to the modified Michaelis-Menten equation.

[3] = system: LPETG (Abz-LPETGK(Dnp)-CONH2); test: In vitro sortase kinetics HPLC assay, LPETG substrate; settings: for KN: eight GGG concentrations; for KH,LPETG: LPETG substrate; for Rel. Activity: kcat/Km of the enzyme's preferred substrate relative to kcat/Km on this substrate; for activity on LPETG: round 9 clones
Outline: as §1

[4] = Sub LPESG, 100 mM GGG, read-out: Km
[5] = Table 2, Sub LPESG, read-out: Km
[6] = Sub LAETG, 100 mM GGG, read-out: Km
[7] = Table 2, Sub LAETG, read-out: Km
[8] = Sub LPETG, 100 mM GGG, read-out: Km
[9] = Table 2, Sub LPETG, read-out: Km
[10] = GGG varied, substrate 4S (LPESG)
[11] = ratio of (kcat/KM)target to (kcat/KM)LPETG, relative to eSrtA
[12] = Example 5 variants, substrate wt (LPETG)
[13] = Example 5 variants, substrate wt (LPETG), read-out: Avg KM
[14] = GGG varied, substrate wt (LPETG)
[15] = GGG varied, substrate 2A (LAETG)

Molecule	KH ([1]; 1 mM LPESG)	Kcat (Hz) ([1]; Sub LPESG, 100 mM GGG)	Km [1, 4]	Rel. Activity ([1]; Sub LPESG)	Kcat (Hz) ([1]; Table 2, Sub LPESG)	Km [1, 5]	Kcat (Hz) ([2]; Sub LAETG, 100 mM GGG)	Km [2, 6]	Rel. Activity ([2]; Sub LAETG)	Kcat (Hz) ([2]; Table 2, Sub LAETG)	Km [2, 7]	KH ([3]; 1 mM LPETG)	KN ([3]; 1 mM LPETG)	Km ([3]; 1 mM LPETG, read-out: Km,GGG)	KH,LPETG [3]	Kcat (Hz) ([3]; Sub LPETG, 100 mM GGG)	Km [3, 8]	Rel. Activity ([3]; Sub LPETG)	Kcat (Hz) ([3]; Table 2, Sub LPETG)	Km [3, 9]	further results
B1	76 ± 19 µM	1.46 ± 0.13 Hz	318 ± 58 µM	4.9	1.46 ± 0.13 Hz	318 ± 58 µM	1.31 ± 0.26 Hz	6070 ± 870 µM	103.3	1.31 ± 0.26 Hz	6070 ± 870 µM	32.8 ± 2.4 µM	32.8 ± 2.4 µM	1617 ± 13 µM	32.8 ± 2.4 µM	5.4 ± 0.4 Hz	230 ± 20 µM	1	5.4 ± 0.4 Hz	230 ± 20 µM	KN ([1]; 1 mM LPESG): 76 ± 19 µM; Km ([1]; 1 mM LPESG, read-out: Km,GGG): 22000 ± 900 µM; kcat, 10 mM GGG (Hz) ([1]; substrate 4S (LPESG), 10 mM GGG): 1.74 Hz; Km ([1]; substrate 4S (LPESG), read-out: Km, LxExG): 672 µM; KH ([2]; 1 mM LAETG): 26.5 ± 0.6 µM; KN ([2]; 1 mM LAETG): 26.5 ± 0.6 µM; Km ([2]; 1 mM LAETG, read-out: Km,GGG): 807 ± 56 µM; preference for LPETG over LAETG ([2]; ratio of kcat/KM): 103 fold; specificity (relative cat. Efficiency, fold) ([2]; ratio of kcat/Km between 2A (LAETG) and wt (LPETG) substrates, favoured over disfavoured): 122.6 fold; kcat, 10 mM GGG (Hz) ([2]; substrate 2A (LAETG), 10 mM GGG): 1.316 Hz; Km ([2]; substrate 2A (LAETG), read-out: Km, LxExG): 6160 µM; Khydrolysis ([3]; 1 mM wt (LPETG) substrate): 22.59 µM; kcat, 1 mM LxExG (Hz) ([3]; 1 mM wt (LPETG) substrate, GGG varied): 7.245 Hz; Km ([3]; 1 mM wt (LPETG) substrate, read-out: Km, GGG): 2990 µM; kL/KL/KH ([3]; substrate wt (LPETG)): 1.20E+09; kHydrolysis (Hz) ([3]; substrate wt (LPETG), 1 mM, GGG varied): 0.05546 Hz; kcat, 10 mM GGG (Hz) ([3]; substrate wt (LPETG), 10 mM GGG): 5.622 Hz; Km ([3]; substrate wt (LPETG), read-out: Km, LxExG): 208 µM
B2	174 ± 32 µM	2.05 ± 0.15 Hz	113 ± 12 µM	1	2.05 ± 0.15 Hz	113 ± 12 µM	0.0078 ± 0.0006 Hz	387 ± 49 µM	898	0.0078 ± 0.0006 Hz	387 ± 49 µM	295 ± 19 µM	295 ± 19 µM	98000 ± 13000 µM	295 ± 18 µM	0.047 ± 0.006 Hz	64.7 ± 4.2 µM	25	0.047 ± 0.006 Hz	64.7 ± 4.2 µM	KN ([1]; 1 mM LPESG): 174 ± 32 µM; Km ([1]; 1 mM LPESG, read-out: Km,GGG): 69000 ± 12000 µM; Avg kcat (Hz) ([1]; Example 5 variants, substrate 4S (LPESG)): 2.146 Hz; Km ([1]; Example 5 variants, substrate 4S (LPESG), read-out: Avg KM): 123 µM; Avg kHydro (Hz) [1, 10]: 0.008016 Hz; Avg kcat (Hz) [1, 10]: 3.178 Hz; Km ([1]; KM for GGG, substrate 4S (LPESG), read-out: Avg KM): 69500 µM; KH (KH,LPESG) ([1]; LPESG substrate): 174 ± 32 µM; change in specificity for LPESG versus LPETG relative to eSrtA [1, 11]: 120 fold and 125 fold; preference for LPESG over LPETG ([1]; ratio of kcat/KM): 25 fold; Specificity ([1]; ratio of kcat/KM, 4S (LPESG) over wt (LPETG)): 24.953; Avg KH ([1]; substrate 4S (LPESG)): 173.5925 µM; activity on LAETG [2]: negligible activity; Avg kcat (Hz) [3, 12]: 0.0468 Hz; Km [3, 13]: 66.1 µM; Avg kHydro (Hz) [3, 14]: 0.000173 Hz; Avg kcat (Hz) [3, 14]: 0.05704 Hz; Km ([3]; KM for GGG, substrate wt (LPETG), read-out: Avg KM): 97600 µM; activity on LPETG [3]: minimally active on LPETG; Avg KH ([3]; substrate wt (LPETG)): 294.8601 µM
B3		0.0066 ± 0.0006 Hz	4800 ± 1200 µM	5943	0.0066 ± 0.0006 Hz	4800 ± 1200 µM	2.23 ± 0.02 Hz	265 ± 9 µM	1	2.23 ± 0.02 Hz	265 ± 9 µM	27.1 ± 0.1 µM	27.1 ± 0.1 µM	585 ± 3 µM	18.7 ± 3.3 µM	0.0209 ± 0.004 Hz	1270 ± 62 µM	510	0.0209 ± 0.0004 Hz	1270 ± 62 µM	activity on LPESG [1]: negligible activity; preference for LAETG over LPESG [2]: > 1000 :1; KH ([2]; 1 mM LAETG): 33 ± 4 µM; KN ([2]; 1 mM LAETG): 33 ± 4 µM; Km ([2]; 1 mM LAETG, read-out: Km,GGG): 1480 ± 190 µM; Avg kcat (Hz) ([2]; Example 5 variants, substrate 2A (LAETG)): 2.23 Hz; Km ([2]; Example 5 variants, substrate 2A (LAETG), read-out: Avg KM): 265 µM; Avg kHydro (Hz) [2, 15]: 0.03506 Hz; Avg kcat (Hz) [2, 15]: 1.587 Hz; Km ([2]; KM for GGG, substrate 2A (LAETG), read-out: Avg KM): 1480 µM; change in specificity for LAETG versus LPETG relative to eSrtA [2, 11]: 51,000 fold; preference for LAETG over LPETG ([2]; ratio of kcat/KM): ~500 fold and 510 fold; Specificity (relative catalytic efficiency, fold) ([2]; ratio of kcat/KM between 2A (LAETG) and wt (LPETG)): 509.8 fold; Avg KH ([2]; substrate 2A (LAETG)): 32.79 µM; Avg kcat (Hz) [3, 12]: 0.02091 Hz; Km [3, 13]: 1270 µM; activity on LPETG [3]: minimally active on LPETG
